From patent US20050272077

B1: GST-MKK3 (protein)
chain: MSKPPAPNPTPPRNLDSRTFITIGDRMFEVEADDLVTISELGRGAYGVVEKVRHAQSGTIMAVKRIRATVNSQEQKRLLMDLDINMRTVDCFYTVTFYGALFREGDVWICMELMDTSLDKFYRKVLDKNMTIPEDILGEIAVSIVRALEHLHSKLSVIHRDVKPSNVLINKEGHVKMCDFGISGYLVDSVAKTMDAGCKPYMAPERINPELNQKGYNVKSDVWSLGITMIEMAILRFPYESWGTPFQQLKQVVEEPSPQLPADRFSPEFVDFTAQCLRKNPAERMSYLELMEHPFFTLHKTKKTDIAAFVKKILGEDS
B2: JNK1 from UV-irradiated cells (protein)
chain: MSRSKRDNNFYSVEIGDSTFTVLKRYQNLKPIGSGAQGIVCAAYDAILERNVAIKKLSRPFQNQTHAKRAYRELVLMKCVNHKNIIGLLNVFTPQKSLEEFQDVYIVMELMDANLCQVIQMELDHERMSYLLYQMLCGIKHLHSAGIIHRDLKPSNIVVKSDCTLKILDFGLARTAGTSFMMTPYVVTRYYRAPEVILGMGYKENVDLWSVGCIMGEMVCHKILFPGRDYIDQWNKVIEQLGTPCPEFMKKLQPTVRTYVENRPKYAGYSFEKLFPDVLFPADSEHNKLKASQARDLLSKMLVIDASKRISVDEALQHPYINVWYDPSEAEAPPPKIPDKQLDEREHTIEEWKELIYKEVMDLEERTKNGVIRGQPSPLAQVQQ

Experiments:
[1] = target: mutated GST-p38 MAP kinase (AGF), Q16539
Chain of mutated GST-p38 MAP kinase (AGF), Q16539 (Q16539 whole entry, looked up, change not shown): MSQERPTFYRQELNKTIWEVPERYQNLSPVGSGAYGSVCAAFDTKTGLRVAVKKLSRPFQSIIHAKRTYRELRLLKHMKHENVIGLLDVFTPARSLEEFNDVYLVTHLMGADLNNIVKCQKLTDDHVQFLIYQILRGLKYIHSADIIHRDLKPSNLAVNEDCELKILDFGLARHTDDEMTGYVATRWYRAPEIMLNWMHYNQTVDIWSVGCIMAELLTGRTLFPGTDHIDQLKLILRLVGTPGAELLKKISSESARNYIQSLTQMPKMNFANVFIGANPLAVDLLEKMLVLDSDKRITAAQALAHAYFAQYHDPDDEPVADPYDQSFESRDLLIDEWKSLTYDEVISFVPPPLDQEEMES

[2] = target: GST-p38 MAP kinase (wild-type, TGY), Q16539
Chain of GST-p38 MAP kinase (wild-type, TGY), Q16539 (Q16539 whole entry, the tested form may be a part): as the sequence (Q16539 whole entry, looked up, change not shown) above

[3] = target: T1, GST-ATF2 fusion protein (residues 1-505), P15336
T1 chain: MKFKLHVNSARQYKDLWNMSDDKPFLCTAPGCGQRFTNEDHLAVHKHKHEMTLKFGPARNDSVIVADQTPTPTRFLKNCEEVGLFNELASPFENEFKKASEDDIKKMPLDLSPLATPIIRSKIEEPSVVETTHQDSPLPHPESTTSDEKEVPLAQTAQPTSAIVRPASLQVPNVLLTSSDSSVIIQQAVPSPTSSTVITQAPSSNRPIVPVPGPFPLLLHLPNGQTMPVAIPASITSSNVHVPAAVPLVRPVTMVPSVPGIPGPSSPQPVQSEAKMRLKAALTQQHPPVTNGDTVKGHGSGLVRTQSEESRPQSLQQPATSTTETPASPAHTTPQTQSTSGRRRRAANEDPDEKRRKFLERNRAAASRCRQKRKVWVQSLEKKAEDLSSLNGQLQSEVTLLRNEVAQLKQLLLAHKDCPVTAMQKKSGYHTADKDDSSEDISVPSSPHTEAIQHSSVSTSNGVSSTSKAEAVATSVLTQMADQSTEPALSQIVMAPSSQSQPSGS

[4] = target: T2, mutated ATF2 (Ala^69.71), P15336
T2 chain: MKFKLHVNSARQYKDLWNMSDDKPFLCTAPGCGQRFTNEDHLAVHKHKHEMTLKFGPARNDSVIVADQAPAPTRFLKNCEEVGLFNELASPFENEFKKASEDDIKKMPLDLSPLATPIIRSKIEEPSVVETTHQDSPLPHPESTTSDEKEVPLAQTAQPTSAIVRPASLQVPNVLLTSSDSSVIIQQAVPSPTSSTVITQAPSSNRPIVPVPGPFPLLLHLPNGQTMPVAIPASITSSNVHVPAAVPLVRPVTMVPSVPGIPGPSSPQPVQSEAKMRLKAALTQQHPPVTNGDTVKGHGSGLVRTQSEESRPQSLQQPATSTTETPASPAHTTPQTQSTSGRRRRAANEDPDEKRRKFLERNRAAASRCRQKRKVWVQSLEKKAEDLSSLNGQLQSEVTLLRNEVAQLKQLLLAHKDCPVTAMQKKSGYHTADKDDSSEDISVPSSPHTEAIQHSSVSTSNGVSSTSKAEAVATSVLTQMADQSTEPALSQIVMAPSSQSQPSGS

Chain of GST-ERK2 [GST: P08515] (P08515 whole entry, looked up, the tested form may be a part): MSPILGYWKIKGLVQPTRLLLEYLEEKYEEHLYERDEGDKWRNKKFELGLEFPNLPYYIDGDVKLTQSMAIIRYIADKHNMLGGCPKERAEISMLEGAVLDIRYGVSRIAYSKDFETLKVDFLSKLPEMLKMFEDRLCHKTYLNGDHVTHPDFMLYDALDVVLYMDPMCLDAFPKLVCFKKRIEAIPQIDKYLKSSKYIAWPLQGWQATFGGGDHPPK

| Protein | phosphorylation of the substrate protein (in vitro kinase assay, SDS-PAGE, autoradiography) [1] | phosphorylation of the substrate protein (in vitro kinase assay, [γ-32P]ATP, SDS-PAGE, autoradiography) (GST-JNK1, P45983) | phosphorylation of the substrate protein (in vitro kinase assay, SDS-PAGE, autoradiography) [2] | phosphorylation of the substrate protein (in vitro kinase assay, [γ-32P]ATP, SDS-PAGE, autoradiography) [2] | phosphorylation of the substrate protein (in vitro kinase assay, [γ-32P]ATP, SDS-PAGE, autoradiography) (GST-ERK2 [GST: P08515]) | in-gel protein kinase assay with GST-ATF2 (residues 1-505) polymerized in the gel [3] | phosphorylation of ATF2 by JNK1 (phosphopeptide mapping and mutational analysis) [4] |
| --- | --- | --- | --- | --- | --- | --- | --- |
| B1 | Only phosphorylation of wild-type p38 was observed | MKK3 phosphorylated p38 MAP kinase, but not JNK1 or ERK2 | Only phosphorylation of wild-type p38 was observed | MKK3 phosphorylated p38 MAP kinase, but not JNK1 or ERK2 | MKK3 phosphorylated p38 MAP kinase, but not JNK1 or ERK2 |  |  |
| B2 |  |  |  |  |  | 46 kD and 55 kD protein kinases that phosphorylate ATF2 in extracts prepared from UV-irradiated cells. The 46 kD and 55 kD protein kinases were identified as JNK1 and JNK2, respectively | Phosphorylation of mutated ATF2 was not observed |
